Measured values: patent US6951972

System: Ac transposase (Zea mays)
Test: cell_activity
Conditions: Ds excision from test plasmid in wheat immature embryos; 0 without transposase plasmid

Ds-Ubi-bar element (254 bp Ds 5' and 320 bp Ds 3' ends)
activity (blue spots per embryo): 61
